This note sets out measurements from patent US20120316071A1 (published 2012).

Experiment [1] addresses T1, rHuman Erythropoietin R/Fc Chimera, CF (R&D Systems Cat#963-ER) (human, UniProt P19235 25-250).
T1 construct: Bought recombinant protein; also called EPO R; EPO R/Fc; Fc part of the bought chimera not given
T1 sequence (looked up): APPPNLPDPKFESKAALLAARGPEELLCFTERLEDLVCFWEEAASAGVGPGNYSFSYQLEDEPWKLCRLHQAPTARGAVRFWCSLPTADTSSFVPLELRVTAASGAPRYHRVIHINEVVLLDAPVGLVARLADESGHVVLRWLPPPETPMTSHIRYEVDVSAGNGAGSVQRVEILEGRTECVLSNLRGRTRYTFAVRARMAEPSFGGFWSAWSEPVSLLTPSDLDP
As to the kind of experiment: ECL multispot (MSD), antigen spotted on plate, Fab at 5.00 (column head: Fab [µM]).

Experiment [2] concerns the target T2, Recombinant Human DLL4 (R&D Systems Cat#1506-D4/CF) (human, UniProt Q9NR61 27-524).
T2 construct: Bought recombinant protein; also called delta-like protein 4; rHuman DLL4
Described as above.

In experiment [3] the target is T3, rHuman ErbB2/Fc Chimera, CF (R&D Systems Cat#1129-ER) (human, UniProt P04626 23-652).
T3 construct: Bought recombinant protein; Fc part of the bought chimera not given
The description is as above.

Experiment [4] concerns the target T4, rHuman EGF R/Fc Chimera, CF (R&D Systems Cat#344-ER) (human, UniProt P00533 25-645).
T4 construct: Bought recombinant protein; Fc part of the bought chimera not given
Described as above.

Experiment [5] has as its target T5, rHuman HGF R/c-MET/Fc Chimera, CF (R&D Systems Cat#358-MT/CF) (human, UniProt P08581 25-932).
T5 construct: Bought recombinant protein; also called HGF R/Fc; Fc part of the bought chimera not given
The experiment is described as above.

The target of experiment [6] is T6, rHuman Notch-1/Fc Chimera, CF (R&D Systems Cat#3647-TK) (human, UniProt P46531 19-526).
T6 construct: Bought recombinant chimera; Fc part of the bought chimera not given
Described as above.

For experiment [7], the target named is T7, rHuman CD44/Fc Chimera, CF (R&D Systems Cat#3660-CD) (human, UniProt P16070 21-220).
T7 construct: Bought recombinant protein; Fc part of the bought chimera not given
The experiment is described as above.

Experiment [8] concerns the target T8, rHuman IGF-1 sR (insulin-like growth factor-1 soluble receptor), CF (R&D Systems Cat#391-GR) (human, UniProt P08069 31-932).
T8 construct: Bought recombinant soluble receptor
The experiment is described as above.

Experiment [9] deals with T9, rHuman P-Cadherin/Fc Chimera, CF (R&D Systems Cat#861-PC) (human, UniProt P22223 108-654).
T9 construct: Bought recombinant protein; Fc part of the bought chimera not given
Described as above.

The target of experiment [10] is T1, rHuman Erythropoietin R/Fc Chimera, CF …. Put plainly: ECL multispot (MSD), antigen spotted on plate, Fab at 50.00 (column head: Fab [µM]).
For experiment [11], the target named is T2, Recombinant Human DLL4 (R&D Systems …). The experiment is described as above.
Experiment [12] concerns the target T3, rHuman ErbB2/Fc Chimera, CF (R&D …). The experiment is described as above.
Experiment [13] concerns the target T4, rHuman EGF R/Fc Chimera, CF (R&D …). Described as above.
For experiment [14], the target named is T5, rHuman HGF R/c-MET/Fc Chimera, CF (R&D …). The description is as above.
Experiment [15] has as its target T6, rHuman Notch-1/Fc Chimera, CF (R&D …). The experiment is described as above.
Experiment [16] addresses T7, rHuman CD44/Fc Chimera, CF (R&D Systems …). The description is as above.
For experiment [17], the target named is T8, rHuman IGF-1 sR (insulin-like growth …). The experiment is described as above.
In experiment [18] the target is T9, rHuman P-Cadherin/Fc Chimera, CF (R&D …). The description is as above.
Experiment [19] deals with T1, rHuman Erythropoietin R/Fc Chimera, CF …. Put plainly: ECL multispot (MSD), antigen spotted on plate, Fab at 500.00 (column head: Fab [µM]).

Changes are numbered by the printed parent chain. Numbers in names are those of the source.

T5 sequence (P08581 25-932, change not shown): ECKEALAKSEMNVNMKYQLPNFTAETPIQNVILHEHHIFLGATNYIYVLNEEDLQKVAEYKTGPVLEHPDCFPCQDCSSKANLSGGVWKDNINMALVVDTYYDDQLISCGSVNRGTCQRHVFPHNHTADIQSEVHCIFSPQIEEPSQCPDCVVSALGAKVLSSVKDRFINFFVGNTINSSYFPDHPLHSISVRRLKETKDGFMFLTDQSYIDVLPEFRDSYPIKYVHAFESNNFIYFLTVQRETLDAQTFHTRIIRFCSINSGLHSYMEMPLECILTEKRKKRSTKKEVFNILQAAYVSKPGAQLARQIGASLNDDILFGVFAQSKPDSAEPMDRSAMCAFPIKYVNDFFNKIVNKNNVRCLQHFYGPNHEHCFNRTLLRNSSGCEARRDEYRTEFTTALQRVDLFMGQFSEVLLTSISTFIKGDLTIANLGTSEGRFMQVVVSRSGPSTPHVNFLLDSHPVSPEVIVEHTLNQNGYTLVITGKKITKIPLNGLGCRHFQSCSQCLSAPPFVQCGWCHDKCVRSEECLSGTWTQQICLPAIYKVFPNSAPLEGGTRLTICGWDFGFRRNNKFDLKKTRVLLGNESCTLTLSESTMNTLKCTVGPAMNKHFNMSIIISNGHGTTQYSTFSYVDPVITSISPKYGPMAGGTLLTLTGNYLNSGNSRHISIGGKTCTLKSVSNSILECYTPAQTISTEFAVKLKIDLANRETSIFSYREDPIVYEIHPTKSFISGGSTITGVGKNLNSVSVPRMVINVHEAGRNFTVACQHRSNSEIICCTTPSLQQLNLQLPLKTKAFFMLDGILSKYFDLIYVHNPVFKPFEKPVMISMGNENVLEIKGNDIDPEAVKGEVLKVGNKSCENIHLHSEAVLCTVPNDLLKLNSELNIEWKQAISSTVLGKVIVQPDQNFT

B1: Fab VH1-46_IGHD6-6*01_IGHJ1*01 & L6_IGKJ1*01 (Fab, V domains shown)
VH: QVQLVQSGAEVKKPGASVKVSCKASGYTFTSYYMHWVRQAPGQGLEWMGIINPSGGSTSYAQKFQGRVTMTRDTSTSTVYMELSSLRSEDTAVYYCAREEYSSSSAEYFQHWGQGTLVTVSS
VL: not shown
notes: Tested as a Fab expressed in E. coli; The heavy chain came from Plasmid A (CH1 with His6 and Flag tags) and the kappa light chain from Plasmid C (kappa CL); also called Wt; wildtype
As to B1, the “signal/noise ratio (ECL)” value in [1] is 1.1; in [2], 32.5; in [3], 1; in experiment [4] it was 1; in experiment [5], 0.9; in [6], 0.8. Moreover, the “signal/noise ratio (ECL)” value was 1.3 in [7]; 1.1 in experiment [8]; 0.9 in [9]; 0.9 in experiment [10]; 33.5 in experiment [11]; 0.6 in experiment [12]. Also, the “signal/noise ratio (ECL)” value in [13] came out at 0.9; in experiment [14], 0.6; in experiment [15], 0.6; in experiment [16], 0.3; in experiment [17] it was 0.5; in experiment [18] it was 0.7. Besides, the “signal/noise ratio (ECL)” value in [19] came to 0.8.

B2: Fab VH1-46_IGHD6-6*01_IGHJ1*01 S102A/S103P/S104F (APF) & L6_IGKJ1*01 (Fab, V domains shown)
VH: B1 VH with S102A, S103P, S104F
VL: not shown
notes: Tested as a Fab expressed in E. coli; the constant parts (CH1 with His6/Flag tags, kappa CL) come from Plasmids A and C; also called APF triple mutant; H:APF & L:wt
Consider B2, for which the “signal/noise ratio (ECL)” value in experiment [1] was found to be 1.8; in [2] it was 482; in experiment [3], 1.1; in experiment [4], 1.1; in experiment [5], 0.8; in [6], 0.9. In addition, the “signal/noise ratio (ECL)” value in experiment [7] turned out to be 1.3; in [8], 1.1; in experiment [9], 1; in [10], 1.6; in [11] it was 274; in [12] it was 0.7. The “signal/noise ratio (ECL)” value in experiment [13] was 1; in [14] it was 0.7; in experiment [15], 1.1; in experiment [16] it was 0.7; in experiment [17] it was 0.5; in [18], 0.9. In addition, the “signal/noise ratio (ECL)” value in experiment [19] stood at 10.4.
